Measurements reported in paper PMC9388122.

Legend:
[1] = molecular target: (H3-H4)2 tetramer (recombinant Xenopus laevis histones) (X. laevis) (UniProt P84233); test: single-molecule photobleaching steps (optical tweezers with fluorescence detection); H2A-Cy3 nucleosomes ligated to 2.5-kb DNA handles, at low tension
[2] = molecular target: (H3-H4)2 tetramer (recombinant Xenopus laevis histones) (X. laevis) (UniProt P84233); test: single-molecule photobleaching steps (optical tweezers with fluorescence detection); H2A-Cy3 hexasomes ligated to 2.5-kb DNA handles

Question: “H2A-Cy3-H2B heterodimer (H2A labelled with one Cy3 at the C-terminal tail by sortase) (from UniProt P06897 1-130; P02281 1-126) (complex)” was tested. Which stoichiometry N [1] did it give?
Answer: The stoichiometry N was 2.

Question: And the stoichiometry N [2]?
Answer: The stoichiometry N was 1.
